{
  "source": "patent US20230338553A1",
  "about": "(published 2023)",
  "target": "Prostate Stem Cell Antigen (PSCA) (human, UniProt O43653 12-83)",
  "sequence (O43653 12-83)": "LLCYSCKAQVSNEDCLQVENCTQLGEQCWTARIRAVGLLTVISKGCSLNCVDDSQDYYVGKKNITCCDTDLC",
  "assay": "flow cytometry (293T-PSCA cells)",
  "data": [
    {"binder": "scFv(h-AM1)-BAP (scFv, mono-biotinylated at the C-terminal BAP (Bio-Tag)) scFv: DAAQPARRARRTKLGTELGSEVQLLESGGGLVQPGGSLRLSCVASGFTFSSYTMSWVRQAPGKGLEWVSYIHNGGGHTYYADSVKGRFTISRDNSKNTLYLQMNSLRAEDTAVYYCTRRMYYGNSHWYFDVWGAGTRVTITSAKTTPPSVYGGGGSGGGGSGGGGSTNSDIQMTQSPSSLSASVGDRVTITCRTSQSISNYLNWYQQKPGKAPKLLIYYTLKLNSGVPSRFSGSGSGTDFTLTISSLQPEDFATYYCQQSKTLPWTFGGGTKLEIKRADAAPTVSGPEQKLISEEDLNSAVDMSGLNDIFEAQKIEWHEGAPSSHHHHHH", "values": [
      {"measurement": "Kd", "value": 0.744, "unit": "µM"}
    ]},
    {"binder": "scFv(AM1)-P-BAP (scFv, mono-biotinylated at the C-terminal P-BAP (PSTCD biotin acceptor domain) when produced in 293T-huBirA cells) scFv: DAAQPARRARRTKLGTELGSQVKLQESGGGLVQPGGSLKLSCVASGFTFSSYTMSWVRRTPEKRLEWVAYIHNGGGHTYYPDTIKGRFTISRDNAKNTLFLEMSSLKSEDTAMYYCTRRMYYGNSHWYFDVWGAGTSVTVSSAKTTPPSVYGGGGSGGGGSGGGGSTNSDIVMTQSPSSLSASLGDRVTINCRTSQDISNYLNWYQLTPDGTVKLLIYYTLKLNSGVPSRFSGSGSGTDYSLTINNLEKEDFATYFCQQSKTLPWTFGGGTKLEIKRADAAPTVSGPKLSSKLKVTVNGTAYDVDVDVDKSHENPMGTILFGGGTGGAPAPAAGGAGAGKAGEGEIPAPLAGTVSKILVKEGDTVKAGQTVLVLEAMKMETEINAPTDGKVEKVLVKERDAVQGGQGLIKIGDLELIEGSSGPEQKLISEEDLNSAVDHHHHHH", "values": [
      {"measurement": "Kd", "value": 16.6, "unit": "µM"}
    ]}
  ]
}
